Laboratory results reported in the supplement of paper PMC9112550, “Optimization of the antimicrobial peptide Bac7 by deep mutational scanning” (BMC Biology, 2022).

The sequences below were run on Escherichia coli TOP10 (assay: shrunken log2 fold change of peptide-encoding DNA abundance (4.5 h post-induction vs induction); higher = less antimicrobial activity (less host growth inhibition)). Settings: time post-induction: 4.5 h; library: site-saturation at positions 5, 18, 19, 20.
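Note: peptides expressed intracellularly from a pBAD plasmid library in pooled LB shake-flask culture, induced with 0.3% L-arabinose, DNA abundance read by NGS, three biological replicates, DESeq2 with apeglm shrinkage.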

| Sequence | shrunken log2 fold change |
| --- | --- |
| RRIRTRPPRLPRPRPRPTQKPRP | -0.0787 |
| RRIRKRPPRLPRPRPRPRDVPRP | 0.316 |
| RRIRARPPRLPRPRPRPTNYPRP | -0.137 |
| RRIRSRPPRLPRPRPRPGRHPRP | 0.0088 |
| RRIRVRPPRLPRPRPRPRVIPRP | -0.0308 |
| RRIRNRPPRLPRPRPRPLGSPRP | -0.0602 |
| RRIRYRPPRLPRPRPRPNDCPRP | -1.04 |
| RRIRPRPPRLPRPRPRPKMSPRP | -0.0151 |
| RRIRSRPPRLPRPRPRPKEKPRP | -0.00788 |
| RRIRCRPPRLPRPRPRPWLPPRP | -0.122 |
| RRIRFRPPRLPRPRPRPPMLPRP | 0.638 |
| RRIRIRPPRLPRPRPRPWPFPRP | -0.259 |
| RRIRKRPPRLPRPRPRPYCRPRP | -0.214 |
| RRIRMRPPRLPRPRPRPKSAPRP | 0.389 |
| RRIRMRPPRLPRPRPRPSLCPRP | 0.694 |
| RRIRIRPPRLPRPRPRPNSQPRP | -0.523 |
| RRIRQRPPRLPRPRPRPTWHPRP | 0.0897 |
| RRIRKRPPRLPRPRPRPMPVPRP | -0.00341 |
| RRIRLRPPRLPRPRPRPPYVPRP | -0.0415 |
| RRIRWRPPRLPRPRPRPYYSPRP | -0.181 |
| RRIRIRPPRLPRPRPRPAMSPRP | -0.0178 |
| RRIRVRPPRLPRPRPRPMQKPRP | 0.533 |
| RRIRQRPPRLPRPRPRPHCNPRP | -0.11 |
| RRIRDRPPRLPRPRPRPICMPRP | -0.00256 |
| RRIRQRPPRLPRPRPRPFQCPRP | -0.247 |

| Sequence | shrunken log2 fold change |
| --- | --- |
| RRIRCRPPRLPRPRPRPFYCPRP | -0.645 |
| RRIRVRPPRLPRPRPRPRWRPRP | 0.587 |
| RRIRERPPRLPRPRPRPHLKPRP | -0.268 |
| RRIRLRPPRLPRPRPRPNQVPRP | -0.294 |
| RRIRARPPRLPRPRPRPECRPRP | 0.874 |
| RRIRPRPPRLPRPRPRPFIYPRP | -0.0739 |
| RRIRQRPPRLPRPRPRPKHVPRP | -0.067 |
| RRIRIRPPRLPRPRPRPDNHPRP | -0.0565 |
| RRIRSRPPRLPRPRPRPVIDPRP | -0.26 |
| RRIRLRPPRLPRPRPRPYEYPRP | -0.132 |
| RRIRSRPPRLPRPRPRPLKSPRP | 0.0254 |
| RRIRLRPPRLPRPRPRPEKTPRP | -0.00142 |
| RRIRHRPPRLPRPRPRPTTCPRP | -0.278 |
| RRIRTRPPRLPRPRPRPKYMPRP | -0.15 |
| RRIRHRPPRLPRPRPRPNKCPRP | -0.431 |
| RRIRGRPPRLPRPRPRPVGLPRP | 0.954 |
| RRIRNRPPRLPRPRPRPLCLPRP | -0.311 |
| RRIRPRPPRLPRPRPRPCCCPRP | 0.368 |
| RRIRRRPPRLPRPRPRPSHMPRP | 0.157 |
| RRIRFRPPRLPRPRPRPPEGPRP | 0.996 |
| RRIRVRPPRLPRPRPRPDDTPRP | -0.00824 |
| RRIRHRPPRLPRPRPRPDRIPRP | -0.495 |
| RRIRIRPPRLPRPRPRPYYWPRP | -0.449 |
| RRIRQRPPRLPRPRPRPSAVPRP | -0.126 |
| RRIRGRPPRLPRPRPRPAPPPRP | 1.07 |

| Sequence | shrunken log2 fold change |
| --- | --- |
| RRIRHRPPRLPRPRPRPDFSPRP | -0.0123 |
| RRIRTRPPRLPRPRPRPGCYPRP | -0.115 |
| RRIRNRPPRLPRPRPRPSRAPRP | 0.121 |
| RRIRTRPPRLPRPRPRPDYCPRP | -0.125 |
| RRIRVRPPRLPRPRPRPVRTPRP | 0.103 |
| RRIRWRPPRLPRPRPRPQDHPRP | 0.178 |
| RRIRHRPPRLPRPRPRPDVWPRP | 0.15 |
| RRIRFRPPRLPRPRPRPSLEPRP | -0.0776 |
| RRIRGRPPRLPRPRPRPTNLPRP | -0.0172 |
| RRIRFRPPRLPRPRPRPAWHPRP | 0.259 |
| RRIRNRPPRLPRPRPRPHPCPRP | 0.231 |
| RRIRKRPPRLPRPRPRPELNPRP | 2.26 |
| RRIRPRPPRLPRPRPRPPKPPRP | 0.0495 |
| RRIRSRPPRLPRPRPRPMIEPRP | -0.0828 |
| RRIRNRPPRLPRPRPRPMHLPRP | -0.179 |
| RRIRIRPPRLPRPRPRPASRPRP | -0.106 |
| RRIRYRPPRLPRPRPRPFHAPRP | 0.207 |
| RRIRKRPPRLPRPRPRPLENPRP | 0.228 |
| RRIRTRPPRLPRPRPRPVQGPRP | 0.165 |
| RRIRCRPPRLPRPRPRPDYSPRP | -0.179 |
| RRIRRRPPRLPRPRPRPHNFPRP | -0.0578 |
| RRIRLRPPRLPRPRPRPSVSPRP | -0.0466 |
| RRIRFRPPRLPRPRPRPLALPRP | -0.0762 |
| RRIRWRPPRLPRPRPRPLNRPRP | -0.274 |
| RRIRWRPPRLPRPRPRPGAKPRP | 0.21 |

| Sequence | shrunken log2 fold change |
| --- | --- |
| RRIRPRPPRLPRPRPRPNPIPRP | -0.237 |
| RRIRIRPPRLPRPRPRPRHNPRP | -0.245 |
| RRIRGRPPRLPRPRPRPTRMPRP | 0.571 |
| RRIRWRPPRLPRPRPRPHLIPRP | 0.172 |
| RRIRVRPPRLPRPRPRPEPMPRP | -0.0177 |
| RRIRVRPPRLPRPRPRPWHGPRP | -0.121 |
| RRIRTRPPRLPRPRPRPIPYPRP | -0.0288 |
| RRIRSRPPRLPRPRPRPVALPRP | -0.0772 |
| RRIRSRPPRLPRPRPRPEYCPRP | 0.184 |
| RRIRHRPPRLPRPRPRPGYGPRP | -0.318 |
| RRIRERPPRLPRPRPRPENAPRP | -0.00683 |
| RRIRWRPPRLPRPRPRPRFIPRP | -0.00733 |
| RRIRLRPPRLPRPRPRPIEGPRP | 0.0046 |
| RRIRTRPPRLPRPRPRPDMRPRP | -0.025 |
| RRIRCRPPRLPRPRPRPTSFPRP | -0.306 |
| RRIRGRPPRLPRPRPRPVFHPRP | 0.0913 |
| RRIRWRPPRLPRPRPRPFDVPRP | -0.00233 |
| RRIRRRPPRLPRPRPRPPCPPRP | 0.641 |
| RRIRPRPPRLPRPRPRPDKIPRP | -0.184 |
| RRIRIRPPRLPRPRPRPLMEPRP | -0.278 |
| RRIRTRPPRLPRPRPRPAWLPRP | -0.0636 |
| RRIRIRPPRLPRPRPRPWPGPRP | -0.172 |
| RRIRHRPPRLPRPRPRPNMCPRP | -0.126 |
| RRIRVRPPRLPRPRPRPWVGPRP | -0.0497 |
| RRIRLRPPRLPRPRPRPCAKPRP | 0.132 |

| Sequence | shrunken log2 fold change |
| --- | --- |
| RRIRLRPPRLPRPRPRPHPFPRP | 0.0808 |
| RRIRQRPPRLPRPRPRPPGDPRP | 0.194 |
| RRIRWRPPRLPRPRPRPEMRPRP | 2.09 |
| RRIRPRPPRLPRPRPRPQCTPRP | -0.0867 |
| RRIRFRPPRLPRPRPRPNMKPRP | 0.234 |
| RRIRARPPRLPRPRPRPPQQPRP | 0.758 |
| RRIRRRPPRLPRPRPRPWWRPRP | 0.463 |
| RRIRYRPPRLPRPRPRPCPCPRP | 0.0185 |
| RRIRMRPPRLPRPRPRPTSCPRP | 0.415 |
| RRIRKRPPRLPRPRPRPAVEPRP | 0.019 |
| RRIRHRPPRLPRPRPRPHECPRP | -0.0277 |
| RRIRRRPPRLPRPRPRPHMAPRP | -0.128 |
| RRIRQRPPRLPRPRPRPVCVPRP | 0.18 |
| RRIRTRPPRLPRPRPRPRSNPRP | 0.186 |
| RRIRGRPPRLPRPRPRPYPKPRP | 0.161 |
| RRIRHRPPRLPRPRPRPPKFPRP | -0.223 |
| RRIRLRPPRLPRPRPRPWCRPRP | 0.0427 |
| RRIRNRPPRLPRPRPRPCPQPRP | 0.0087 |
| RRIRMRPPRLPRPRPRPQFKPRP | -0.138 |
| RRIRDRPPRLPRPRPRPEWMPRP | 0.764 |
| RRIRTRPPRLPRPRPRPNYAPRP | 0.0202 |
| RRIRKRPPRLPRPRPRPADNPRP | 0.0284 |
| RRIRLRPPRLPRPRPRPCLNPRP | -0.0428 |
| RRIRDRPPRLPRPRPRPSKEPRP | -0.031 |
| RRIRVRPPRLPRPRPRPEGRPRP | 0.0493 |
